According to the supplement of paper PMC9170038:

Test system: MS2 coat protein
Test: apparent KD of MS2 coat protein; higher = weaker reporter binding
Conditions: Eterna round: R107
Outline: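 Designed RNA switches, transcribed on-chip from Illumina sequencing clusters, were titrated with SNAP-549-labelled MS2 coat protein from 0.7 or 1.5 nM to 3 µM in twofold steps. The solution was 100 mM Tris-HCl pH 7.5, 80 mM KCl, 4 mM MgCl2, with constant ligand or without it. Apparent KD is the median over each design's normalised cluster binding-curve fits.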

[1] = input ligand: theophylline 20 uM
[2] = input ligand: theophylline 2 mM
[3] = input ligand: tryptophan 2.4 mM

| Sequence | apparent KD of MS2 coat protein (input ligand: arginine 13.2 mM) | apparent KD of MS2 coat protein (input ligand: none) | apparent KD of MS2 coat protein [1] | apparent KD of MS2 coat protein [2] | apparent KD of MS2 coat protein [3] |
| --- | --- | --- | --- | --- | --- |
| UGGCGAGAAGGAAGGAGCGUCAGCUGAGUCACAUGAGGAUCACCCAUGUCGCACAUAGUGUGACAGGUAGGUCGCCUUCUGCCCU [Beinmain] | 84.9 nM | 134 nM | 152 nM | 239 nM | 156 nM |
| GGUGGCUCCAUCGAUACCAGCCACCACCGAUAGACCACAUGAGGAUCACCCAUGUUGGGUGGCCCUUGGCAGCGGUGAAGCUGCC [#1 Same State - Theophylline B Attempt #4 (HarryS)] | 44.1 nM | 304 nM | 416 nM | 34.5 nM | 657 nM |
| ACAUGAGGAUCACCCAUGUGCAUCACCCGACGAGGACCGGUACGGCCGCCACUCGGGUAUAUAUUUGCAUCGGGUGAUUUUACGU [#25 Tryptophan A Same State] | 15.5 nM | – | 59.5 nM | 61.6 nM | – |
| AAAGGCGGGCAGGAUACCAGCGCUAACAUGAGGAUCACCCAUGUACAAAUAAUAACAUGGUGCCCUUGGCAGCCUGGGCGUCUGC [Usedlati] | 26.6 nM | – | 150 nM | – | 61.3 nM |
| CGUGGUGGGACGGAUACCAGCCACCGCGGCAACGCAACAUGAGGAUCACCCAUGUUGGGUGGCCCUUGGCAGCUGUGCUGCGACG [#1 Same State - Theophylline B Attempt #28 (HarryS)] | 50.9 nM | 182 nM | 191 nM | 34.2 nM | 95.2 nM |
| AAACAUGAGGAUCACCCAUGUAUACUUAGACGAGGACCGGUACGGCCGCCACUCGAACUUCAAGAUUUGGCGGAAAAUGUAUGUA [JR_ExcTryptoA_Sub022] | 9.71 nM | – | 13 nM | 12.1 nM | – |
| AUACAUGAGGAUCACCCAUGUCAUUCAGAAGGAGCGUCAUUAUUGACAGGUAGGUCGCUGAUAAAAUUUUUAUACAUUAUGUUUA [JR_SSArginiA_Sub014] | 31.9 nM | 16.3 nM | 20.9 nM | 18.1 nM | 17.3 nM |
| ACGUAAAGCAGAAGGAGCGUCUUCAAAUUACAUGAGGAUCACCCAUGUUUUGUGAUCAUAUGACAGGUAGGUCGCUGAAGUACGA [JR_SSArginiB_Sub003] | 58.3 nM | 71.7 nM | 97.5 nM | 86.4 nM | 66.5 nM |
| CGUGCUAGGGCGGCCGCCACUGUGGCUACGGUACAUGAGGAUCACCCAUGUUUGUGGUUGAUCUACAGGACCGGGCCCUGGCACG [Radiaerdi] | 131 nM | 107 nM | 442 nM | 756 nM | 280 nM |
| ACAUGAGGAUCACCCAUGUCAUGAGGUUCACGAGGACCGGUACGGCCGCCACUCGGGCUUCGGAUCACGGAUGUACAUGAUGAUC [kmullin1] | 45.4 nM | – | 92.2 nM | 123 nM | – |
| AUUAAUAGUUGUGAUACCAGACGAACAUGAGGAUCACCCAUGUAACUUAAGAGUGUUGAUGUCCCUUGGCAGCACUGUUUAGUUA [JR_SSTheophyB_Sub015] | 59.5 nM | – | 105 nM | – | 91.5 nM |
| GGCACAUAGUCGGCCGCCACUACGUGGAGAUCGGAGUACAUGAGGAUCACCCAUGUAUGGAAGGGUAGGACCGGGACUAUGUGCC [Horalka] | 38.3 nM | 67.1 nM | 38.5 nM | 123 nM | 18.7 nM |
| AGUCUUAAAGGAAGGAGCGCAGUCAUAACAUGAGGAUCACCCAUGUCGAGGUGAGGGUCAUUGCAGGUAGGUCGCCUUACUAAGA [Same State - Arginine B (Freestyle 6)] | 77.7 nM | 114 nM | 118 nM | 132 nM | 96.1 nM |
| UCUUACUAUAGUGAUACCAGACGUACAUGAGGAUCACCCAUGUUACAUUCUUGGUUAAAAGUCCCUUGGCAGCACGAUUUGUUCG [JR_Nu_ExcTheophyB_Sub026] | 9.88 nM | – | 10.8 nM | – | 9.76 nM |
| GGACUAACCAGAAGGAGCGGCGCGCAGAAACUGCAAAAUCCUCCGCACGAGGAUCACCCGUGUCAGGUAGGUCGCUGGUUAGUCG [ArgBX 28] | 18 nM | 17.7 nM | 16.2 nM | 20.8 nM | 17.3 nM |
| AGUAUACAUUCUGAUACCAGAGACAUGAGGAUCACCCAUGUCCGAUCGUCCUGCCUCAGACUCCCUUGGCAGCAGGAUAUGUGCU [Exclusion Theophylline B GF5] | 16.2 nM | – | 21.8 nM | – | 16.6 nM |
